Test results: US20230383001A1 (Kyowa Kirin, published 2023)

Molecular target: T1, OX40 on OX40-positive helper T-cells in blood of patients (human, UniProt P43489 29-277)
T1 construct: whole, on cells; The cells came from trial patients; also called CD134; human OX40
T1 sequence (looked up): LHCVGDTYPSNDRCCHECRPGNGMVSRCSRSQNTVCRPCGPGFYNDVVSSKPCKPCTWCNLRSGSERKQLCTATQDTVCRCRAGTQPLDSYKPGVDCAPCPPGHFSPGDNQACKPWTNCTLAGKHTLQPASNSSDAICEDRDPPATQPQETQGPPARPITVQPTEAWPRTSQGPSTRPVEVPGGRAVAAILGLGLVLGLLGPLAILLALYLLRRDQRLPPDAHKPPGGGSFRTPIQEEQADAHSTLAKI
Experiment: flow cytometry of patients' blood after dosing: total versus unoccupied OX40-positive helper T cells (receptor occupancy, ex vivo)
Procedure: Blood samples for flow cytometry are collected from the subjects who voluntarily agree. When the timing overlaps the study drug administration, the sample is taken before the study drug administration. The OX40-positive cells and the CLA-positive memory T cells in the blood of the patients are counted. When OX40-positive cells in the blood are analyzed, OX40-positive cells in helper T cells are analyzed by using helper T cell markers. Therefore, OX40-positive cells in the blood herein means OX40 positive helper T cells in the blood.

binding result: binds
B1: KHK4083 (antibody, human IgG1, kappa, V domains shown)
VH: QITLKESGPTLVKPKQTLTLTCTFSGFSLSTSGMGVGWIRQPPGKALEWLAVIYWDDHQLYSPSLKSRLTITKDTSKNQVVLTMTNMDPVDTATYYCAHRRGAFQHWGQGTLVTVSS
VL: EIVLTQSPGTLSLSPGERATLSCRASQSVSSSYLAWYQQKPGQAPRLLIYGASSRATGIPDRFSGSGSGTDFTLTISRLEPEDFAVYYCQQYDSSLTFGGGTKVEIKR
notes: also called anti-OX40 antibody
